B1: Refmab #5 (antibody, V domains shown)
VH: QVQLVQSGAEVKKPGASVKVSCKASGYTFTNYDINWVRQAPGQGLEWIGWIYPGDGSTKYNEKFKAKATLTADTSTSTAYMELRSLRSDDTAVYYCASGYEDAMDYWGQGTTVTVSS
VL: DIQMTQSPSSLSASVGDRVTINCKASQDINSYLSWFQQKPGKAPKTLIYRANRLVDGVPSRFSGSGSGQDYTLTISSLQPEDFATYYCLQYDEFPLTFGGGTKVEIK
notes: Full-length format is human IgG1 Fc silent (PG-LALA); also made as Fab; The alanine scan used IgG or Fab
B2: Refmab #5 (antibody, V domains shown)
VH: QVQLVQSGAEVKKPGASVKVSCKASGYTFTNYDINWVRQAPGQGLEWIGWIYPGDGSTKYNEKFKAKATLTADTSTSTAYMELRSLRSDDTAVYYCASGYEDAMDYWGQGTTVTVSS
VL: DIQMTQSPSSLSASVGDRVTINCKASQDINSYLSWFQQKPGKAPKTLIYRANRLVDGVPSRFSGSGSGQDYTLTISSLQPEDFATYYCLQYDEFPLTFGGGTKVEIK
notes: The alanine scan used IgG or Fab
B3: Refmab #6 (antibody, V domains shown)
VH: QVQLQQPGAEVVKPGASVKMSCKASGYTFTSYYIHWIKQTPGQGLEWVGVIYPGNDDISYNQKFQGKATLTADKSSTTAYMQLSSLTSEDSAVYYCAREVRLRYFDVWGQGTTVTVSS
VL: EIVLTQSPGSLAVSPGERVTMSCKSSQSVFFSSSQKNYLAWYQQIPGQSPRLLIYWASTRESGVPDRFTGSGSGTDFTLTISSVQPEDLAIYYCHQYLSSRTFGQGTKLEIK
notes: as for B1
B4: Refmab #6 (antibody, V domains shown)
VH: QVQLQQPGAEVVKPGASVKMSCKASGYTFTSYYIHWIKQTPGQGLEWVGVIYPGNDDISYNQKFQGKATLTADKSSTTAYMQLSSLTSEDSAVYYCAREVRLRYFDVWGQGTTVTVSS
VL: EIVLTQSPGSLAVSPGERVTMSCKSSQSVFFSSSQKNYLAWYQQIPGQSPRLLIYWASTRESGVPDRFTGSGSGTDFTLTISSVQPEDLAIYYCHQYLSSRTFGQGTKLEIK
notes: as for B2
B5: Refmab #3 (antibody, V domains shown)
VH: QVQLVQSGAEVKKPGSSVKVSCKASGYTFTDYNMHWVRQAPGQGLEWIGYIYPYNGGTGYNQKFKSKATITADESTNTAYMELSSLRSEDTAVYYCARGRPAMDYWGQGTLVTVSS
VL: DIQMTQSPSSLSASVGDRVTITCRASESVDNYGISFMNWFQQKPGKAPKLLIYAASNQGSGVPSRFSGSGSGTDFTLTISSLQPDDFATYYCQQSKEVPWTFGQGTKVEIK
notes: In the alanine scan antibodies were used as IgG or Fab
B6: Refmab #4 (antibody, V domains shown)
VH: QVQLVQSGAEVKKPGESVKVSCKASGYTFTNYGMNWVKQAPGQGLEWMGWINTYTGEPTYADKFQGRVTMTTDTSTSTAYMEIRNLGGDDTAVYYCARWSWSDGYYVYFDYWGQGTSVTVSS
VL: DIVMTQSPDSLTVSLGERTTINCKSSQSVLDSSTNKNSLAWYQQKPGQPPKLLLSWASTRESGIPDRFSGSGSGTDFTLTIDSPQPEDSATYYCQQSAHFPITFGQGTRLEIK
notes: as for B5

Experiments:
Assay in all cases: alanine scan, flow cytometry, HEK293-T;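 further: antibody binding to each alanine-substituted CD33 mutant expressed transiently in HEK293-T, read as fluorescence minus background, mean of duplicates, relative to wild-type CD33 set as 100%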
human CD33 S54A = human CD33 S54A (human, UniProt P20138 18-364)
human CD33 S54A, sequence (P20138 18-364 S54A limits assumed): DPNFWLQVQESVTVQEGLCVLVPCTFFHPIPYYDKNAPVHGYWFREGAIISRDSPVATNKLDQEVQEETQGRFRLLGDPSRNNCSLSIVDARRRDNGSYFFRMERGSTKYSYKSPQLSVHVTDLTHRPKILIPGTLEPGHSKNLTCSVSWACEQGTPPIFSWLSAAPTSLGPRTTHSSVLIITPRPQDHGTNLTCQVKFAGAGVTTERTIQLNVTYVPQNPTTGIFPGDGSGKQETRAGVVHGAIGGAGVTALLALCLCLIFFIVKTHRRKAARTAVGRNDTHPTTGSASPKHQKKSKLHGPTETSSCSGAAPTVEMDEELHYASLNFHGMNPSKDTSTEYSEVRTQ

human CD33 F118A = human CD33 F118A (human, UniProt P20138 18-364)
human CD33 F118A, sequence (P20138 18-364 F118A limits assumed): as the sequence (P20138 18-364 S54A limits assumed) above, with A37S, F101A counted along it

human CD33 M120A = human CD33 M120A (human, UniProt P20138 18-364)
human CD33 M120A, sequence (P20138 18-364 M120A limits assumed): as the sequence (P20138 18-364 S54A limits assumed) above, with A37S, M103A counted along it

human CD33 E63A = human CD33 E63A (human, UniProt P20138 18-364)
human CD33 E63A, sequence (P20138 18-364 E63A limits assumed): as the sequence (P20138 18-364 S54A limits assumed) above, with A37S, E46A counted along it

human CD33 Q80A = human CD33 Q80A (human, UniProt P20138 18-364)
human CD33 Q80A, sequence (P20138 18-364 Q80A limits assumed): as the sequence (P20138 18-364 S54A limits assumed) above, with A37S, Q63A counted along it

human CD33 V106A = human CD33 V106A (human, UniProt P20138 18-364)
human CD33 V106A, sequence (P20138 18-364 V106A limits assumed): as the sequence (P20138 18-364 S54A limits assumed) above, with A37S, V89A counted along it

human CD33 A65S = human CD33 A65S (human, UniProt P20138 18-364)
human CD33 A65S, sequence (P20138 18-364 A65S limits assumed): as the sequence (P20138 18-364 S54A limits assumed) above, with A37S, A48S counted along it

human CD33 S115A = human CD33 S115A (human, UniProt P20138 18-364)
human CD33 S115A, sequence (P20138 18-364 S115A limits assumed): as the sequence (P20138 18-364 S54A limits assumed) above, with A37S, S98A counted along it

human CD33 Q87A = human CD33 Q87A (human, UniProt P20138 18-364)
human CD33 Q87A, sequence (P20138 18-364 Q87A limits assumed): as the sequence (P20138 18-364 S54A limits assumed) above, with A37S, Q70A counted along it

human CD33 P96A = human CD33 P96A (human, UniProt P20138 18-364)
human CD33 P96A, sequence (P20138 18-364 P96A limits assumed): as the sequence (P20138 18-364 S54A limits assumed) above, with A37S, P79A counted along it

human CD33 T75A = human CD33 T75A (human, UniProt P20138 18-364)
human CD33 T75A, sequence (P20138 18-364 T75A limits assumed): as the sequence (P20138 18-364 S54A limits assumed) above, with A37S, T58A counted along it

human CD33 I47A = human CD33 I47A (human, UniProt P20138 18-364)
human CD33 I47A, sequence (P20138 18-364 I47A limits assumed): as the sequence (P20138 18-364 S54A limits assumed) above, with I30A, A37S counted along it

human CD33 I105A = human CD33 I105A (human, UniProt P20138 18-364)
human CD33 I105A, sequence (P20138 18-364 I105A limits assumed): as the sequence (P20138 18-364 S54A limits assumed) above, with A37S, I88A counted along it

human CD33 T86A = human CD33 T86A (human, UniProt P20138 18-364)
human CD33 T86A, sequence (P20138 18-364 T86A limits assumed): as the sequence (P20138 18-364 S54A limits assumed) above, with A37S, T69A counted along it

human CD33 R62A = human CD33 R62A (human, UniProt P20138 18-364)
human CD33 R62A, sequence (P20138 18-364 R62A limits assumed): as the sequence (P20138 18-364 S54A limits assumed) above, with A37S, R45A counted along it

human CD33 S71A = human CD33 S71A (human, UniProt P20138 18-364)
human CD33 S71A, sequence (P20138 18-364 S71A limits assumed): as the sequence (P20138 18-364 S54A limits assumed) above, with A37S, S54A counted along it

human CD33 D95A = human CD33 D95A (human, UniProt P20138 18-364)
human CD33 D95A, sequence (P20138 18-364 D95A limits assumed): as the sequence (P20138 18-364 S54A limits assumed) above, with A37S, D78A counted along it

human CD33 V82A = human CD33 V82A (human, UniProt P20138 18-364)
human CD33 V82A, sequence (P20138 18-364 V82A limits assumed): as the sequence (P20138 18-364 S54A limits assumed) above, with A37S, V65A counted along it

human CD33 Y49A = human CD33 Y49A (human, UniProt P20138 18-364)
human CD33 Y49A, sequence (P20138 18-364 Y49A limits assumed): as the sequence (P20138 18-364 S54A limits assumed) above, with Y32A, A37S counted along it

human CD33 F61A = human CD33 F61A (human, UniProt P20138 18-364)
human CD33 F61A, sequence (P20138 18-364 F61A limits assumed): as the sequence (P20138 18-364 S54A limits assumed) above, with A37S, F44A counted along it

human CD33 V56A = human CD33 V56A (human, UniProt P20138 18-364)
human CD33 V56A, sequence (P20138 18-364 V56A limits assumed): as the sequence (P20138 18-364 S54A limits assumed) above, with A37S, V39A counted along it

human CD33 S166A = target: T1, human CD33 S166A (human, UniProt P20138 18-364)
T1 construct: alanine scan clone, transfected HEK293-T
T1 sequence (P20138 18-364 S166A limits assumed): as the sequence (P20138 18-364 S54A limits assumed) above, with A37S, S149A counted along it

human CD33 S194A = target: T2, human CD33 S194A (human, UniProt P20138 18-364)
T2 construct: alanine scan clone, transfected HEK293-T
T2 sequence (P20138 18-364 S194A limits assumed): as the sequence (P20138 18-364 S54A limits assumed) above, with A37S, S177A counted along it

human CD33 T142A = target: T3, human CD33 T142A (human, UniProt P20138 18-364)
T3 construct: alanine scan clone, transfected HEK293-T
T3 sequence (P20138 18-364 T142A limits assumed): as the sequence (P20138 18-364 S54A limits assumed) above, with A37S, T125A counted along it

human CD33 C169A = target: T4, human CD33 C169A (human, UniProt P20138 18-364)
T4 construct: alanine scan clone, transfected HEK293-T
T4 sequence (P20138 18-364 C169A limits assumed): as the sequence (P20138 18-364 S54A limits assumed) above, with A37S, C152A counted along it

human CD33 Q133A = target: T5, human CD33 Q133A (human, UniProt P20138 18-364)
T5 construct: alanine scan clone, transfected HEK293-T
T5 sequence (P20138 18-364 Q133A limits assumed): as the sequence (P20138 18-364 S54A limits assumed) above, with A37S, Q116A counted along it

human CD33 V165A = target: T6, human CD33 V165A (human, UniProt P20138 18-364)
T6 construct: alanine scan clone, transfected HEK293-T
T6 sequence (P20138 18-364 V165A limits assumed): as the sequence (P20138 18-364 S54A limits assumed) above, with A37S, V148A counted along it

human CD33 A182S = target: T7, human CD33 A182S (human, UniProt P20138 18-364)
T7 construct: alanine scan clone, transfected HEK293-T
T7 sequence (P20138 18-364 A182S limits assumed): as the sequence (P20138 18-364 S54A limits assumed) above, with A37S, A165S counted along it

human CD33 E170A = target: T8, human CD33 E170A (human, UniProt P20138 18-364)
T8 construct: alanine scan clone, transfected HEK293-T
T8 sequence (P20138 18-364 E170A limits assumed): as the sequence (P20138 18-364 S54A limits assumed) above, with A37S, E153A counted along it

human CD33 K159A = target: T9, human CD33 K159A (human, UniProt P20138 18-364)
T9 construct: alanine scan clone, transfected HEK293-T
T9 sequence (P20138 18-364 K159A limits assumed): as the sequence (P20138 18-364 S54A limits assumed) above, with A37S, K142A counted along it

human CD33 S124A = target: T10, human CD33 S124A (human, UniProt P20138 18-364)
T10 construct: alanine scan clone, transfected HEK293-T
T10 sequence (P20138 18-364 S124A limits assumed): as the sequence (P20138 18-364 S54A limits assumed) above, with A37S, S107A counted along it

human CD33 T191A = target: T11, human CD33 T191A (human, UniProt P20138 18-364)
T11 construct: alanine scan clone, transfected HEK293-T
T11 sequence (P20138 18-364 T191A limits assumed): as the sequence (P20138 18-364 S54A limits assumed) above, with A37S, T174A counted along it

human CD33 S178A = target: T12, human CD33 S178A (human, UniProt P20138 18-364)
T12 construct: alanine scan clone, transfected HEK293-T
T12 sequence (P20138 18-364 S178A limits assumed): as the sequence (P20138 18-364 S54A limits assumed) above, with A37S, S161A counted along it

human CD33 L148A = target: T13, human CD33 L148A (human, UniProt P20138 18-364)
T13 construct: alanine scan clone, transfected HEK293-T
T13 sequence (P20138 18-364 L148A limits assumed): as the sequence (P20138 18-364 S54A limits assumed) above, with A37S, L131A counted along it

human CD33 D140A = target: T14, human CD33 D140A (human, UniProt P20138 18-364)
T14 construct: alanine scan clone, transfected HEK293-T
T14 sequence (P20138 18-364 D140A limits assumed): as the sequence (P20138 18-364 S54A limits assumed) above, with A37S, D123A counted along it

human CD33 C212A = human CD33 C212A (human, UniProt P20138 18-364)
human CD33 C212A, sequence (P20138 18-364 C212A limits assumed): as the sequence (P20138 18-364 S54A limits assumed) above, with A37S, C195A counted along it

Row | Binder | Mean % WT Binding (human CD33 S54A) | Mean % WT Binding (human CD33 F118A) | Mean % WT Binding (human CD33 M120A) | Mean % WT Binding (human CD33 E63A) | Mean % WT Binding (human CD33 Q80A) | Mean % WT Binding (human CD33 V106A) | Mean % WT Binding (human CD33 A65S) | Mean % WT Binding (human CD33 S115A) | Mean % WT Binding (human CD33 Q87A) | Mean % WT Binding (human CD33 P96A) | Mean % WT Binding (human CD33 T75A) | Mean % WT Binding (human CD33 I47A) | Mean % WT Binding (human CD33 I105A) | Mean % WT Binding (human CD33 T86A) | Mean % WT Binding (human CD33 R62A) | Mean % WT Binding (human CD33 S71A) | Mean % WT Binding (human CD33 D95A) | Mean % WT Binding (human CD33 V82A) | Mean % WT Binding (human CD33 Y49A) | Mean % WT Binding (human CD33 F61A) | also measured
1 | B1 | 146 % WT binding | 11.1 % WT binding | 73.2 % WT binding | 140 % WT binding | 151 % WT binding | 106 % WT binding | 175 % WT binding | 74.6 % WT binding | 137 % WT binding | 114 % WT binding | 120 % WT binding | 117 % WT binding | 41.7 % WT binding | 124 % WT binding | 123 % WT binding | 150 % WT binding | 122 % WT binding | 122 % WT binding | 20.6 % WT binding | 161 % WT binding | Mean % WT Binding (human CD33 V56A): 93 % WT binding
2 | B2 | – | – | – | – | – | – | – | – | – | – | – | – | – | – | – | – | – | – | – | – | Mean % WT Binding (human CD33 S166A): 114 % WT binding; Mean % WT Binding (human CD33 S194A): 90.4 % WT binding; Mean % WT Binding (human CD33 T142A): 101 % WT binding; Mean % WT Binding (human CD33 C169A): 101 % WT binding; Mean % WT Binding (human CD33 Q133A): 112 % WT binding; Mean % WT Binding (human CD33 V165A): 174 % WT binding; Mean % WT Binding (human CD33 A182S): 103 % WT binding; Mean % WT Binding (human CD33 E170A): 110 % WT binding; Mean % WT Binding (human CD33 K159A): 148 % WT binding; Mean % WT Binding (human CD33 S124A): 79.4 % WT binding; Mean % WT Binding (human CD33 T191A): 115 % WT binding; Mean % WT Binding (human CD33 S178A): 117 % WT binding; Mean % WT Binding (human CD33 L148A): 113 % WT binding; Mean % WT Binding (human CD33 D140A): 118 % WT binding
3 | B3 | 83.6 % WT binding | 4.9 % WT binding | 76.3 % WT binding | 90.9 % WT binding | 102 % WT binding | 125 % WT binding | 92.3 % WT binding | 75.8 % WT binding | 96.9 % WT binding | 92.3 % WT binding | 102 % WT binding | 117 % WT binding | 25.5 % WT binding | 80.1 % WT binding | 106 % WT binding | 99.4 % WT binding | 86.3 % WT binding | 110 % WT binding | 113 % WT binding | 111 % WT binding | Mean % WT Binding (human CD33 V56A): 113 % WT binding
4 | B4 | – | – | – | – | – | – | – | – | – | – | – | – | – | – | – | – | – | – | – | – | Mean % WT Binding (human CD33 S166A): 108 % WT binding; Mean % WT Binding (human CD33 S194A): 92.4 % WT binding; Mean % WT Binding (human CD33 T142A): 91.6 % WT binding; Mean % WT Binding (human CD33 C169A): 76.2 % WT binding; Mean % WT Binding (human CD33 Q133A): 88.3 % WT binding; Mean % WT Binding (human CD33 V165A): 101 % WT binding; Mean % WT Binding (human CD33 A182S): 93.9 % WT binding; Mean % WT Binding (human CD33 E170A): 89.5 % WT binding; Mean % WT Binding (human CD33 K159A): 123 % WT binding; Mean % WT Binding (human CD33 S124A): 98.2 % WT binding; Mean % WT Binding (human CD33 T191A): 88.5 % WT binding; Mean % WT Binding (human CD33 S178A): 102 % WT binding; Mean % WT Binding (human CD33 L148A): 93.3 % WT binding; Mean % WT Binding (human CD33 D140A): 104 % WT binding
5 | B5 | – | – | – | – | – | – | – | – | – | – | – | – | – | – | – | – | – | – | – | – | Mean % WT Binding (human CD33 C212A): 57.3%
6 | B6 | – | – | – | – | – | – | – | – | – | – | – | – | – | – | – | – | – | – | – | – | Mean % WT Binding (human CD33 C212A): 11%

Reference: US20260242735A1 (UNIVERSIT T BASEL, published 2026)
